From patent publication US20080227698A1, “OLIGOPEPTIDES FOR TREATMENT OF OSTEOPOROSIS AND OTHER BONE DISEASES AND METHODS THEREOF” (Washington University, priority 2005, published 2008)

Tests used:
LRP6 [1] = target: T1, LRP6 (Homo sapiens, UniProt O75581); experiment: ^125I-RAP binding to LRP6-transduced HT1080 cells and control cells; set-up: plasmid pCS-Myc-hLRP6 containing the full-length human LRP6 cDNA; HA; expressed in transfected cells; host or cells: human HT1080 cells, stably transduced (pLNCX2 retroviral vector)
Procedure: Cells (2×10^5) were seeded into 12-well dishes 1 day prior to assay. Ligand-binding buffer (minimal Eagle's medium containing 0.6% BSA with a different concentration of radioligand, 0.6 ml/well) was added to cell monolayers, in the absence or the presence of 500 nM unlabeled RAP or 500 nM unlabeled Mesd, followed with incubation for 0-4 hours at 4° C. Thereafter, overlying buffer containing unbound ligand was removed, and cell monolayers were washed and lysed in low-SDS lysis buffer (62.5 mM Tris-HCl pH 6.8, 0.2% SDS, 10% v/glycerol) and counted.
Receptor-associated protein (RAP) binds with high affinity to LRP, megalin, VLDLR and apoER2, and with a lower affinity to the LDLR (Bu, G., Int. Rev. Cytol. 209, 79-116. 2001). To determine whether RAP and Mesd bind to identical, overlapping, or different sites on the receptors, binding and competition analysis of these two chaperones with HT1080 cells stably expressing LRP6 was performed.
In FIG. 8A, binding of ^125I-RAP (5 nM) to LRP6-transduced HT1080 cells and the control cells was carried out for 4 hours at 4° C. in the absence (total) or presence of 500 nM RAP, or 500 nM Mesd. In FIG. 8B, binding of ^125I-Mesd (5 nM) to LRP6-transduced HT1080 cells was carried out for 2 hours at 4° C. in the absence (total) or presence of various concentrations of RAP or 500 nM Mesd. (C) LRP6-mediated ^125I-Mesd (5 nM) degradation was carried out for 4 hours at 37° C. in the absence or presence of 500 nM Mesd or 500 nM RAP. Values are the means of triple determinations with the s.d. indicated by error bars.

LRP6 [2] = target: T1, LRP6; experiment: LRP6-mediated ^125I-Mesd degradation in LRP6-transduced HT1080 cells; format: cell-based; set-up: plasmid pCS-Myc-hLRP6 containing the full-length human LRP6 cDNA; HA; expressed in transfected cells; host or cells: human HT1080 cells, stably transduced (pLNCX2 retroviral vector); details: ^125I-Mesd 5 nM, 4 hours at 37° C.
Procedure: Ligand degradation was performed using the methods as described (Li, Y., J. Biol. Chem. 275: 17187-17194, 2000). Briefly, 2×10^5 cells were seeded into 12-well dishes 1 day prior to assay. Pre-warmed assay buffer (minimal Eagle's medium containing 0.6% BSA with radioligand, 0.6 ml/well) was added to cell monolayers in the absence or the presence of unlabeled 500 nM RAP or 500 nM Mesd, followed by incubation for 4 hours at 37° C. Thereafter, the medium overlying the cell monolayers was removed and proteins were precipitated by addition of BSA to 10 mg/ml and trichloroacetic acid to 20%. Degradation of radioligand was defined as the appearance of radioactive fragments in the overlying medium that were soluble in 20% trichloroacetic acid. Kinetic analysis of endocytosis LRP6-transduced HT1080 cells were plated in 12-well plates at a density of 2×10^5 cells/well and used after overnight culture. Cells were rinsed twice in ice-cold assay buffer (minimal Eagle's medium containing 0.6% BSA), and ^125I-anti-HA IgG was added at 1 nM final concentration in cold assay buffer (0.5 ml/well). The binding of ^125Ianti- HA IgG was carried out at 4° C. for 90 minutes with gentle rocking. Unbound ^125I-anti-HA IgG was removed by washing cell monolayers three times with cold assay buffer. Ice-cold stop/strip solution (0.2 M acetic acid, pH 2.6, 0.1 M NaCl) was added to one set of plates without warming up and kept on ice. The remaining plates were then placed in a 37° C. water bath and 0.5 ml assay buffer prewarmed to 37° C. was quickly added to cell monolayers to initiate internalization. After each time point, the plates were quickly placed on ice and the assay buffer was replaced with cold stop/strip solution. ^125I-anti-HA IgG that remained on the cell surface was stripped by incubation of cell monolayers with cold stop/strip solution for a total of 20 minutes (0.75 ml for 10 minutes, twice) and counted. Cell monolayers were then solubilized with low-SDS lysis buffer and counted. […] The fraction of internalized ^125I-anti-HA IgG after each time point was calculated and plotted. […]

LRP6 [3] = target: T1, LRP6; experiment: LRP6 folding: western blot of ER and mature LRP6 forms in HEK293 cells with Mesd coexpression; format: cell-based; set-up: plasmid pCS-Myc-hLRP6 containing the full-length human LRP6 cDNA; HA; expressed in transfected cells; details: HEK293 cells transiently transfected with LRP6 cDNA and Mesd or MesdΔC cDNA
Procedure: To examine the expression of the LDLR family members, cells cultured in six-well plates were lysed with 0.5 ml lysis buffer (phosphate-buffered saline containing 1% Triton X-100 and 1 mM PMSF) at 4° C. for 30 minutes. Equal quantities of protein were subjected to SDS-PAGE under non-reducing conditions. Following transfer to Immobilon-P membrane, successive incubations with primary antibody and horseradish peroxidase-conjugated secondary antibody were carried out for 60 minutes at room temperature. The immunoreactive proteins were then detected using the ECL system.
To examine the role of this C-terminal region of Mesd on receptor folding, a Mesd mutant (Mesd_C), which lacks the C-terminal region (amino acids 156-191) but retains the endoplasmic reticulum retention signal (REDL) was generated (FIG. 3A). Next, a potential role for MesdΔC on LRP6 folding was evaluated. HEK293 cells were transiently transfected with cDNA for the LRP6 with cotransfection of control vector, or cDNAs for Mesd or MesdΔC. The steady-state levels of LRP6 were analyzed by western blotting with the anti-MYC antibody (FIG. 5A). […] In FIG. 5A, HEK293 cells were transiently transfected with the indicated cDNAs. Cell lysates were analyzed by SDS-PAGE under reducing conditions and western blotted with anti-FLAG or anti-HA antibodies as indicated.

T1 sequence (O75581 20-1613): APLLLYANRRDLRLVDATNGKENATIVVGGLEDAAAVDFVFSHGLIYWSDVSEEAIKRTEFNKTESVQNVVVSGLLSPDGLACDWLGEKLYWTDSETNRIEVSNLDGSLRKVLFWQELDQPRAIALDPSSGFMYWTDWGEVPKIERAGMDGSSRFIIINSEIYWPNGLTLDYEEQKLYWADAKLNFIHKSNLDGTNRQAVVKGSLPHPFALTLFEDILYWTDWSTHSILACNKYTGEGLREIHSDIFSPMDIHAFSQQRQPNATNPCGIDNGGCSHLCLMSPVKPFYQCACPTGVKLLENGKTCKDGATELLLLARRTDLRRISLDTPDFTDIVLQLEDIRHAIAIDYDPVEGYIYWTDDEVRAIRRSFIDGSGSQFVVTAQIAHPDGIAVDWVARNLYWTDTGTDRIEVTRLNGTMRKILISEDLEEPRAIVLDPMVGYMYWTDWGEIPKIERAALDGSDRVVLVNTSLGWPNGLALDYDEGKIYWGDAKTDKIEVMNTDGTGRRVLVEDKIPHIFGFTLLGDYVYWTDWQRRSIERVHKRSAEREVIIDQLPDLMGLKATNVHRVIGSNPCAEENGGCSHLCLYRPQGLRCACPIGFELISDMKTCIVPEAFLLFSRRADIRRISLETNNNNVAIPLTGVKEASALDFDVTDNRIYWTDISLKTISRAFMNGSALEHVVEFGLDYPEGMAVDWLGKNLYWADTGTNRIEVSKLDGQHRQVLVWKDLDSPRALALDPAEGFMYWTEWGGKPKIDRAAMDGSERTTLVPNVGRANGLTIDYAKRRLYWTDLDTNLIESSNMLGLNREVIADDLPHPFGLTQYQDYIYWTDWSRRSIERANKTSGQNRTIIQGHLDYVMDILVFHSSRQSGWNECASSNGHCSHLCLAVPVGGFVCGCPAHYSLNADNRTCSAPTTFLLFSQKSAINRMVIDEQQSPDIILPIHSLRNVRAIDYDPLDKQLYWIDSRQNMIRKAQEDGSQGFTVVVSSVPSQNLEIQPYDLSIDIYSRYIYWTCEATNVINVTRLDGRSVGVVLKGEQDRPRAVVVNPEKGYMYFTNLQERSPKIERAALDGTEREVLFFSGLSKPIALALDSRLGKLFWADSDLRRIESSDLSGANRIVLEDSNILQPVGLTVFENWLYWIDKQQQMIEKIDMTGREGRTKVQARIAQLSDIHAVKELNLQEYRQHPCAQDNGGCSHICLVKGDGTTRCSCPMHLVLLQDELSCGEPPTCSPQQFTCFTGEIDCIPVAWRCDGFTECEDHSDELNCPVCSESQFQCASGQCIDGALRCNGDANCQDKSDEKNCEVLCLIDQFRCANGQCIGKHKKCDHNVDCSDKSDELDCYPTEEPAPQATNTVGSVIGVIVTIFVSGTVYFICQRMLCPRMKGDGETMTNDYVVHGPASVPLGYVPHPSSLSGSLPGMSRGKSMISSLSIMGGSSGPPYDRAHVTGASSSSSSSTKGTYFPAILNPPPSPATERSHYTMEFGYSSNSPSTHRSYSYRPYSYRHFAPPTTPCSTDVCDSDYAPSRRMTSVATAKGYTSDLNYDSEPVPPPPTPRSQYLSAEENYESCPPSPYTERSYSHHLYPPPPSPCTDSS

- Effect of excess unlabeled competitor on ^125I-RAP binding to control cells (LRP6 [1]; 500 nM competitor, control cells expressing vector alone, 4° C.): not
- Effect on the LRP6-dependent increase of ^125I-RAP binding (LRP6 [1]; excess unlabeled Mesd (500 nM), 4 hours at 4° C.): abolished
- Inhibition of ^125I-Mesd degradation (LRP6 [2]; 500 nM unlabeled competitor): completely
- ^125I-Mesd degradation level (LRP6 [2]; HT1080 cells transduced with LRP6): 320 fmoles/mg cell protein
- Amount of the mature form of LRP6 on coexpression (LRP6 [3]): significantly increased
B1: Mesd: recombinant wild-type mouse Mesd, polyhistidine tail at the N-terminus, lacks the signal peptide, expressed in E. coli (protein)
chain: ADTPGEATPPPRKKKDIRDYNDADMARLLEQWEKDDDIEEGDLPEHKRPSAPIDFSKLDPGKPESILKMTKKGKTLMMFVTVSGNPTEKETEEITSLWQGSLFNANYDVQRFIVGSDRAIFMLRDGSYAWEIKDFLVSQDRCAEVTLEGQMYPGKGGGSKEKNKTKPEKAKKKEGDRKPRASKEDNRAGSRREDL
modifications: left off: small tags and cut ends
notes: recombinant wild-type mouse Mesd, polyhistidine tail at the N-terminus, lacks the signal peptide, expressed in E. coli
